Values joined by “and” are separate entries in the source; they are usually repeats but may differ in a detail not shown here. Identical values can stand only once. Like-named read-outs stand apart in the source and are kept apart here.
Legend:
[1] = target: human voltage-gated sodium channel Nav1.7 (human) (UniProt Q15858); assay: cell-based or functional assay
[2] = target: human voltage-gated sodium channel Nav1.4 (human) (UniProt P35499); assay: cell-based or functional assay
[3] = target: human voltage-gated sodium channel Nav1.5 (human) (UniProt Q14524); assay: cell-based or functional assay
[4] = target: human voltage-gated sodium channel Nav1.7 (human) (UniProt Q15858); assay: cell-based or functional assay; remark: listed apart in the source
[5] = target: human voltage-gated sodium channel Nav1.4 (human) (UniProt P35499); assay: cell-based or functional assay; remark: listed apart in the source
[6] = target: human voltage-gated sodium channel Nav1.5 (human) (UniProt Q14524); assay: cell-based or functional assay; remark: listed apart in the source
[7] = target: TTX-sensitive Nav channels in mouse DRG neurons; assay: cell-based or functional assay
[8] = target: TTX-resistant Nav channels in mouse DRG neurons; assay: cell-based or functional assay
[9] = target: human voltage-gated sodium channel Nav1.8 (human) (UniProt Q9Y5Y9); assay: cell-based or functional assay
[10] = target: TTX-sensitive Nav channels in mouse DRG neuron; assay: cell-based or functional assay
[11] = target: human voltage-gated sodium channel Nav1.3 (human) (UniProt Q9NY46); assay: cell-based or functional assay
[12] = target: human voltage-gated sodium channel Nav1.3 (human) (UniProt Q9NY46); assay: cell-based or functional assay; remark: listed apart in the source
[13] = target: human voltage-gated sodium channel Nav1.8 (human), Q9Y5Y9; settings: chains peptide; modification not given

human voltage-gated sodium channel Nav1.7 (human), sequence (Q15858 whole entry): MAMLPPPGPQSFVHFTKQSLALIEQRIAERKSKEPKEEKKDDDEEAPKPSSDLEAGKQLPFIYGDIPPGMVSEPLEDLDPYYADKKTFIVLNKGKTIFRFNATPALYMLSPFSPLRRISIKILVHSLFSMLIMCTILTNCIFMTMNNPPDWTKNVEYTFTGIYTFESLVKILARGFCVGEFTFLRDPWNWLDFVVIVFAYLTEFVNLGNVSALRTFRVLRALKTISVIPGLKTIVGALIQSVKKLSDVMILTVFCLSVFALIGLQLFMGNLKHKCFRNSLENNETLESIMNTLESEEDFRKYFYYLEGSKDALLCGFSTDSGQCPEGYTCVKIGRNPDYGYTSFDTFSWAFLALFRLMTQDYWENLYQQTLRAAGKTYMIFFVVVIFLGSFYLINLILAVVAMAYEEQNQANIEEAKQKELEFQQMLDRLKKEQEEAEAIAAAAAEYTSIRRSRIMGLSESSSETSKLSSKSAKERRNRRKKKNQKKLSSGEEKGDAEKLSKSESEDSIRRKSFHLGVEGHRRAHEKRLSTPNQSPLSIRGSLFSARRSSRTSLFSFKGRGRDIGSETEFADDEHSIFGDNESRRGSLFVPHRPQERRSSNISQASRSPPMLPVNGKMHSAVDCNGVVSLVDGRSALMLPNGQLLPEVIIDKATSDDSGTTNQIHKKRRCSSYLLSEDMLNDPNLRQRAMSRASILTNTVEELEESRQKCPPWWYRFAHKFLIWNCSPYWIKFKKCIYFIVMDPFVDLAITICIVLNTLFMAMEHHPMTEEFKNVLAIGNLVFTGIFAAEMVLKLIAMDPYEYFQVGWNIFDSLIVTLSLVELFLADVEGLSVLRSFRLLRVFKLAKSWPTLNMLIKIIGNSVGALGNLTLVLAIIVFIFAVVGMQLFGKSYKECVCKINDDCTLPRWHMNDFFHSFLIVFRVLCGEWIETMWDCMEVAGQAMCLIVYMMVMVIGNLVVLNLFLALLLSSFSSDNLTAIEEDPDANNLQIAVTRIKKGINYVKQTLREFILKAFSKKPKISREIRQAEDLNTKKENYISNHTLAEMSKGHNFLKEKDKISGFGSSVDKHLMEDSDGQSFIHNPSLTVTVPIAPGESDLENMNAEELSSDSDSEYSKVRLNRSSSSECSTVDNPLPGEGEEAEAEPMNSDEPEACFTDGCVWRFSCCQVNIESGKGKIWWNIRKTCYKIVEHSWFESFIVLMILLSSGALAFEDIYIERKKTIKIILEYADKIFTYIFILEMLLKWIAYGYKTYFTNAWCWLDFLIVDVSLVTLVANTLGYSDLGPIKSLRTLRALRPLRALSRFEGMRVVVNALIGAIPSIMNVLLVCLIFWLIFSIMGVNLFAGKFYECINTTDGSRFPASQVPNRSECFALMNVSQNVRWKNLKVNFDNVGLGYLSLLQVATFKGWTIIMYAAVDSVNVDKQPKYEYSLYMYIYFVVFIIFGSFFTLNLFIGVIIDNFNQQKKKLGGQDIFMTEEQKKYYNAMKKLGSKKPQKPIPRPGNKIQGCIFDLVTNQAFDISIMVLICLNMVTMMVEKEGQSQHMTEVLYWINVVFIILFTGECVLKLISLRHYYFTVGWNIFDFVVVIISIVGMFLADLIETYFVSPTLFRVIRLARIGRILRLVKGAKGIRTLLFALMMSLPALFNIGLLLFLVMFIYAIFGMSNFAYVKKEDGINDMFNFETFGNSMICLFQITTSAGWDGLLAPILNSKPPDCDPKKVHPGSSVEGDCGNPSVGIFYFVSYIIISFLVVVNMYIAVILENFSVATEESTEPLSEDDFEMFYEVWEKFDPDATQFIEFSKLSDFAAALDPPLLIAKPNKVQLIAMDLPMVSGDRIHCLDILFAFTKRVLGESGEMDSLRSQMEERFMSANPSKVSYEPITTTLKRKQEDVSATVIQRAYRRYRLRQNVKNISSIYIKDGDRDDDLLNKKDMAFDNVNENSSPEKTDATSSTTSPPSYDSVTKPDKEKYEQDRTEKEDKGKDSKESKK
human voltage-gated sodium channel Nav1.4 (human), sequence (P35499 whole entry): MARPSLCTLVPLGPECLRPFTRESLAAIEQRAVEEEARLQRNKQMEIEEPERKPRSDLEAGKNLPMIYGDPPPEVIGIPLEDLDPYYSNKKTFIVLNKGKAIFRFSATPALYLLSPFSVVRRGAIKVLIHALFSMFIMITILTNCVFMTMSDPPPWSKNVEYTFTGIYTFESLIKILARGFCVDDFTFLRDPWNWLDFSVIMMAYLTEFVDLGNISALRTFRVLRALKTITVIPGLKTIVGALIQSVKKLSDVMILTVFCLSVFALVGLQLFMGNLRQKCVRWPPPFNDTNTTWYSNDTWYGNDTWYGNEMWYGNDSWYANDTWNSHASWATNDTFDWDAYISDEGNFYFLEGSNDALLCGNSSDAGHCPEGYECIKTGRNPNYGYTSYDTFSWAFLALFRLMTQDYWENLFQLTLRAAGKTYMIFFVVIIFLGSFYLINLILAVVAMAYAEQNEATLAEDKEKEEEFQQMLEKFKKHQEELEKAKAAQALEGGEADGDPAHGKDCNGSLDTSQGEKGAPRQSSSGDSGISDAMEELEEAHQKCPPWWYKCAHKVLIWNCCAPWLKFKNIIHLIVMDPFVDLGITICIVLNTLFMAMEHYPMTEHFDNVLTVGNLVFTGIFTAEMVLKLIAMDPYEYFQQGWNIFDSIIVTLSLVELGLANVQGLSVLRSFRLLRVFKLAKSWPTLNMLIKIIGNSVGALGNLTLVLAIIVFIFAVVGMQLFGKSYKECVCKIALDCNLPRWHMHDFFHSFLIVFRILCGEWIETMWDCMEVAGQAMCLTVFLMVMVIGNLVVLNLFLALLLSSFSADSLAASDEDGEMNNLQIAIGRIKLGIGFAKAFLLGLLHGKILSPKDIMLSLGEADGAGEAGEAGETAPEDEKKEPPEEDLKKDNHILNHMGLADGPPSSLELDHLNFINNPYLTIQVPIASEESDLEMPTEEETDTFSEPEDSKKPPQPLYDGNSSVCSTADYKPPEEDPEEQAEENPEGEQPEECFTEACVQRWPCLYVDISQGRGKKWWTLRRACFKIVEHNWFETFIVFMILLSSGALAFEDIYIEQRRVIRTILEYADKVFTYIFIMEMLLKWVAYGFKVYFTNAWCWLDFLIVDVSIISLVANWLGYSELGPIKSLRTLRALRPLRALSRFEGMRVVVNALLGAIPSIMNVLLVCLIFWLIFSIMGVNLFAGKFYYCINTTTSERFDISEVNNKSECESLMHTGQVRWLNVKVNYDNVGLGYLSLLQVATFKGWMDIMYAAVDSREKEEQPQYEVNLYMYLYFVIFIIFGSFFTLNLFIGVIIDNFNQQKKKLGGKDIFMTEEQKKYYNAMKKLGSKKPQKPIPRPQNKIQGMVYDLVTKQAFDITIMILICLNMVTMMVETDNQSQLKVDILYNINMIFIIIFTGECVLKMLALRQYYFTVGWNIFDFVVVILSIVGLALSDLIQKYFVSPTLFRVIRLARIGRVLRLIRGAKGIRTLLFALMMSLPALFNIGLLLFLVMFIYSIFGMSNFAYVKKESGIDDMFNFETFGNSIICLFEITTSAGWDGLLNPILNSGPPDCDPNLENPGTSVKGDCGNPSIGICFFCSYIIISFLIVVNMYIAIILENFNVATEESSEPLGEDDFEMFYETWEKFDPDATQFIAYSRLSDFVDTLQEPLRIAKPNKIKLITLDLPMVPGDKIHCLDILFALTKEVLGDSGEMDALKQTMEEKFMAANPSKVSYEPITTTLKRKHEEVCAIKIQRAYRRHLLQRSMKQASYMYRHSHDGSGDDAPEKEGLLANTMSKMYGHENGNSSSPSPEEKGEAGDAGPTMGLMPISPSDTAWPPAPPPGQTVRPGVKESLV

Atz(NPEG10)-[Nle6]JzTx-V(1-29) (peptide)
PX hNav1.7 Tonic IC50 [1]: 6 nM | Nav1.4/Nav1.7 [2]: 1 fold | PX hNav1.4 Tonic IC50 [2]: 8 nM | Nav1.5/Nav1.7 [3]: 629 fold | PX hNav1.5 Tonic IC50 [3]: 3770 nM

GpTx-1 (peptide)
Nav1.7 whole cell patch clamp [WCPC] IC50 [1]: 3 nM

JzTx-45 (peptide)
PX hNav1.7 Tonic IC50 [1]: 122 nM | PX hNav1.4 Tonic IC50 [2]: 321 nM | PX hNav1.5 Tonic IC50 [3]: 7460 nM

JzTx-V(1-29) (peptide)
IC50 (IonWorks Quattro) [4]: 40 nM | IC50 (IonWorks Quattro) [5]: 200 nM | IC50 (IonWorks Quattro) [6]: > 7000 nM | 1.x/1.7, fully non-inactivated [7]: 530 fold | 1.x/1.7, partially inactivated [7]: 111 fold | Mean IC50, fully non-inactivated (WCPC) [7]: 75 nM | Mean IC50, partially inactivated (WCPC) [7]: 18 nM | IC50 (IonWorks Quattro) [1]: 20 nM | Mean IC50, fully non-inactivated (WCPC) [1]: 0.141 nM | Mean IC50, partially inactivated (WCPC) [1]: 0.162 nM | PX hNav1.4 Tonic IC50 [2]: 3 nM and 2 nM | average IC50 against hNav1.4, PX assay format [2]: 2 nM | Mean IC50, fully non-inactivated (WCPC) [8]: > 1000 nM | Mean IC50, partially inactivated (WCPC) [8]: > 1000 nM | 1.x/1.7, fully non-inactivated [9]: 5720 fold | 1.x/1.7, partially inactivated [9]: 3280 fold | Mean IC50, fully non-inactivated (WCPC) [9]: 810 nM | Mean IC50, partially inactivated (WCPC) [9]: 530 nM | 1.x/1.7, fully non-inactivated [3]: 6230 fold | 1.x/1.7, partially inactivated [3]: 2640 fold | IC50 (IonWorks Quattro) [3]: 7200 nM | Mean IC50, fully non-inactivated (WCPC) [3]: 882 nM | Mean IC50, partially inactivated (WCPC) [3]: 426 nM | PX hNav1.5 Tonic IC50 [3]: 2210 nM and 3250 nM and 1600 nM

Bis-{Atz(PEG23*)-[Nle6]JzTx-V(1-29)}-5-((2-(benzylthio)acetamido)methyl)isophthalamide (peptide)
Nav1.4/Nav1.7 [2]: 5 fold and 3 fold | PX hNav1.5 Tonic IC50 [3]: 720 nM and 1180 nM

[1-Nal7]JzTx-V(1-29) (peptide)
PX hNav1.7 Tonic IC50 [1]: 0.4 nM | PX hNav1.4 Tonic IC50 [2]: 0.9 nM | PX hNav1.5 Tonic IC50 [3]: 1420 nM

CyA-[Nle6,Lys(Pra)14,Glu28]JzTx-V(1-29) (peptide)
fold loss of potency against JzTx-V on TTX-sensitive current, mouse DRG neurons [10]: 3 fold

Atz(PEG11-benzylthioacetamide)-[Nle6]JzTx-V(1-29) (peptide)
PX hNav1.7 Tonic IC50 [1]: 1.4 nM | Nav1.4/Nav1.7 [2]: 9 fold | PX hNav1.4 Tonic IC50 [2]: 13 nM | Nav1.5/Nav1.7 [3]: 1420 fold | PX hNav1.5 Tonic IC50 [3]: 1980 nM

[Nle6]JzTx-V(1-29) (peptide)
IC50 (IonWorks Quattro) [4]: > 5000 nM | IC50 (IonWorks Quattro) [5]: > 5000 nM | IC50 (IonWorks Quattro) [11]: > 5000 nM | IC50 (IonWorks Quattro) [6]: > 5000 nM | PX hNav1.7 Tonic IC50 [1]: 0.586 nM

[Cit20]JzTx-V(1-29) (peptide)
IC50 (IonWorks Quattro) [1]: 40 nM | IC50 (IonWorks Quattro) [2]: 500 nM | Nav1.4/Nav1.7 (ratio of IC50s) [2]: 15 | IC50 (IonWorks Quattro) [12]: 350 nM | IC50 (IonWorks Quattro) [3]: 6800 nM

[Cpa20]JzTx-V(1-29) (peptide)
IC50 (IonWorks Quattro) [1]: 210 nM | IC50 (IonWorks Quattro) [2]: > 5000 nM | Nav1.4/Nav1.7 (ratio of IC50s) [2]: 24 | IC50 (IonWorks Quattro) [12]: > 5000 nM | IC50 (IonWorks Quattro) [3]: 14200 nM

[Nva20]JzTx-V(1-29) (peptide)
IC50 (IonWorks Quattro) [1]: 170 nM | IC50 (IonWorks Quattro) [2]: 3100 nM | Nav1.4/Nav1.7 (ratio of IC50s) [2]: 19 | IC50 (IonWorks Quattro) [12]: > 5000 nM | IC50 (IonWorks Quattro) [3]: 10400 nM

[Abu20]JzTx-V(1-29) (peptide)
IC50 (IonWorks Quattro) [1]: 50 nM | IC50 (IonWorks Quattro) [2]: 900 nM | Nav1.4/Nav1.7 (ratio of IC50s) [2]: 19 | IC50 (IonWorks Quattro) [12]: 970 nM | IC50 (IonWorks Quattro) [3]: 10600 nM

[Phe6,Atz(2 kDa EtO-PEG*-{[Phe6,Atz13*]GpTx-1(1-34)})13]GpTx-1(1-34) (peptide)
Nav1.7 WCPC IC50 [1]: 0.58 nM

Pra-[Nle6]JzTx-V(1-29) (peptide)
fold improvement in hNav1.7 potency over wild type JzTx-V, WCPC [1]: 190 fold | fold potency against hNav1.7 over wild type JzTx-V(1-29), WCPC [1]: 200 fold | fold potency over JzTx-V on TTX-sensitive current, mouse DRG neurons [10]: 3 fold

YCQKWMWTCDSKRACCEGLRCKLWCRKII [JzTx-V(1-29)]
IC50 [13]: 630 nM and 430 nM
